These results are taken from the Immune Epitope Database (IEDB).

Assay [1] has as its target HLA-A*02:01. Kind of assay: IEDB peptide-MHC binding, cellular MHC/competitive/fluorescence; ≥ and ≤ were set here for values at or beyond the usual limits of such assays. Conditions: source organism: Homo sapiens.
Assay [2] deals with HLA-B*57:01. Kind of assay: IEDB peptide-MHC binding, purified MHC/competitive/fluorescence; filed as Kd, often an IC50 or EC50 that approximates it; ≥ and ≤ were set here for values at or beyond the usual limits of such assays. The following applies: source organism: Orthomarburgvirus marburgense.
A further assay concerns the target HLA-A*26:02. The assay is described as above. Conditions: source organism: Orthomarburgvirus marburgense.
The target in a further assay is HLA-A*02:06. Described as above. The following applies: source organism: Orthomarburgvirus marburgense.
The target in assay [3] is HLA-B*39:01. Described as above. Conditions: source organism: Orthomarburgvirus marburgense.
Another assay addresses HLA-A*68:02. The assay is described as above. Conditions: source organism: Orthomarburgvirus marburgense.
For assay [4], the target named is HLA-B*15:09. The description is as above.
Assay [5] concerns the target HLA-A*26:01. The description is as above. Conditions: source organism: Orthomarburgvirus marburgense.
For assay [6], the target named is HLA-B*15:17. The description is as above.
The target of a further assay is HLA-B*18:01. As to the kind of experiment: IEDB peptide-MHC binding, purified MHC/direct/fluorescence; filed as Kd, often an IC50 or EC50 that approximates it; ≥ and ≤ were set here for values at or beyond the usual limits of such assays.
A further assay concerns the target HLA-A*11:01. The assay is described as above.
The target in the next assay is HLA-B*07:02. Described as above.
The next assay concerns the target HLA-A*24:03. Described as above. The following applies: source organism: Marburg virus - Musoke, Kenya, 1980.
The target in a further assay is HLA-C*08:02. The assay is described as above. Conditions: source organism: Orthomarburgvirus marburgense.
A further assay addresses HLA-B*58:01. The assay is described as above.
Another assay concerns the target HLA-A*69:01. The description is as above.
In assay [7] the target is HLA-A*01:01. The assay is described as above.
The target in the next assay is HLA-A*23:01. The assay is described as above. Conditions: source organism: Marburg virus - Musoke, Kenya, 1980.
For another assay, the target named is HLA-B*08:02. The assay is described as above. The following applies: source organism: Ravn virus - Ravn, Kenya, 1987.
In assay [8] the target is HLA-A*31:01. The description is as above.
For the next assay, the target named is HLA-A*30:01. Kind of assay: IEDB peptide-MHC binding, purified MHC/competitive/fluorescence; filed as Kd, often an IC50 or EC50 that approximates it; ≥ and ≤ were set here for values at or beyond the usual limits of such assays. Conditions: source organism: Vibrio cholerae O1 biovar El Tor str. N16961.
For a further assay, the target named is HLA-B*08:01. The description is as above.
For assay [9], the target named is HLA-A*31:01. The assay is described as above. The following applies: source organism: Vibrio cholerae O1 biovar El Tor str. N16961.
The next assay addresses HLA-B*48:01. Kind of assay: IEDB peptide-MHC binding, purified MHC/direct/fluorescence; filed as Kd, often an IC50 or EC50 that approximates it; ≥ and ≤ were set here for values at or beyond the usual limits of such assays.
For assay [10], the target named is HLA-B*57:01. The assay is described as above.
The next assay concerns the target HLA-B*40:01. The description is as above.
The target of assay [11] is HLA-B*39:01. The assay is described as above.
The next assay has as its target HLA-B*51:01. Described as above.
Another assay addresses HLA-B*46:01. The description is as above.
Another assay concerns the target HLA-A*03:01. The description is as above.
The next assay has as its target HLA-B*15:01. The description is as above.
The next assay concerns the target HLA-B*27:05. The description is as above.
In assay [12] the target is HLA-B*15:17. The description is as above. Conditions: source organism: Vibrio cholerae.
A further assay deals with HLA-A*24:02. As to the kind of experiment: IEDB peptide-MHC binding, purified MHC/competitive/radioactivity; ≥ and ≤ were set here for values at or beyond the usual limits of such assays. The following applies: source organism: Homo sapiens.
Assay [13] has as its target HLA-A*02:01. Described as above. Conditions: source organism: Homo sapiens.
The target in assay [14] is HLA-A*01:01. Described as above.
Assay [15] addresses HLA-A*02:01. Kind of assay: IEDB peptide-MHC binding, purified MHC/direct/fluorescence; filed as Kd, often an IC50 or EC50 that approximates it; ≥ and ≤ were set here for values at or beyond the usual limits of such assays. The following applies: source organism: Influenza A virus (A/Wisconsin/4755/1994(H1N1)).
In another assay the target is HLA-B*38:01. The description is as above. The following applies: source organism: Influenza A virus(A/swine/Shandong/fNY/2003(H9N2)).
Assay [16] concerns the target HLA-B*15:09. Described as above. The following applies: source organism: Influenza A virus(A/swine/Shandong/fNY/2003(H9N2)).
Assay [17] deals with HLA-A*26:01. Described as above. Conditions: source organism: Influenza A virus(A/swine/Shandong/fNY/2003(H9N2)).
For a further assay, the target named is HLA-C*04:01. The description is as above. The following applies: source organism: Canis lupus familiaris.
Another assay deals with HLA-C*07:02. Described as above. The following applies: source organism: Canis lupus familiaris.
Setting [18] is: source organism: Orthomarburgvirus marburgense.
Where [19] appears, read: source organism: Marburg virus - Musoke, Kenya, 1980.
[20] abbreviates: source organism: Vibrio cholerae O1 biovar El Tor str. N16961.
[21] abbreviates: source organism: Vibrio cholerae.
Setting [22] is: source organism: Vibrio cholerae V52.
Where [23] appears, read: source organism: Influenza A virus H3N2.
[24] abbreviates: source organism: Influenza A virus (A/Wisconsin/4755/1994(H1N1)).

Where only a bound is given, the exact number is not on record here.

In general, IC50 refers to the concentration that inhibits the measured activity by half. In turn, ALLDKLYAL registered a 50% inhibitory concentration (IC50) with HLA-A*02:01 [1] of 1.18 µM.
For orientation: Kd means the free concentration of one partner at which half of the binding sites on the other are occupied at equilibrium, for simple one-to-one binding. Read a high Kd as a looser complex. For the sequence YLAPSYRNF, the Kd was at least 20 µM with HLA-B*57:01 [2]; 0.0042 µM with HLA-A*26:02; at least 20 µM in the assay with HLA-A*02:06; at least 20 µM in the assay with HLA-B*39:01 [3]; 3.22 µM with HLA-A*68:02; at least 20 µM with HLA-B*15:09 [4] (setting [18]). Also, the Kd is 5.13 µM with HLA-A*26:01 [5]; 3.98 µM with HLA-B*15:17 [6] (setting [18]); at least 20 µM with HLA-B*18:01 (setting [19]); at least 20 µM with HLA-A*11:01 (setting [19]); at least 20 µM in the assay with HLA-B*07:02 (setting [19]); 0.0165 µM in the assay with HLA-A*24:03. Also, the Kd in the assay with HLA-C*08:02 was at least 20 µM; with HLA-B*58:01 (source organism: Ravn virus - Ravn, Kenya, 1987), 0.43 µM; with HLA-A*69:01 (setting [19]), at least 20 µM; with HLA-A*01:01 [7] (setting [19]), at least 20 µM; with HLA-A*23:01, 0.023 µM; in the assay with HLA-B*08:02 it was at least 20 µM. The Kd with HLA-A*31:01 [8] (setting [19]) is at least 20 µM.
For YLKKGRLSL, the Kd in the assay with HLA-A*30:01 was 1.49 µM; with HLA-B*15:09 [4] (setting [20]) it was at least 20 µM; in the assay with HLA-B*08:01 (setting [20]) it was 0.0532 µM; with HLA-A*31:01 [9], at least 20 µM; with HLA-B*18:01 (setting [21]) it was at least 20 µM; in the assay with HLA-B*48:01 (setting [21]), at least 20 µM. In addition, the Kd was at least 20 µM with HLA-B*57:01 [10] (setting [21]); at least 20 µM with HLA-A*11:01 (setting [21]); 0.123 µM with HLA-B*07:02 (setting [21]); at least 20 µM with HLA-B*40:01 (setting [21]); at least 20 µM with HLA-B*39:01 [11] (setting [22]); at least 20 µM with HLA-B*51:01 (setting [21]). The Kd in the assay with HLA-B*46:01 (setting [21]) was 5.06 µM; in the assay with HLA-B*58:01 (setting [21]), at least 20 µM; in the assay with HLA-A*69:01 (setting [21]) it was at least 20 µM; with HLA-A*03:01 (setting [21]), at least 20 µM; in the assay with HLA-B*15:01 (setting [22]), 0.053 µM; in the assay with HLA-A*01:01 [7] (setting [21]) it was at least 20 µM. Moreover, the Kd with HLA-B*27:05 (setting [21]) and with HLA-B*15:17 [12] was at least 20 µM each time.
For IFSKASEYL, the half-inhibitory concentration (IC50) in the assay with HLA-A*24:02 came out at 0.522 µM.
As to RLDCWRGGQV, the 50% inhibitory concentration (IC50) in the assay with HLA-A*02:01 [13] is 0.25 µM.
In the assay with HLA-A*02:01 [1], LLDRFLATV registered an IC50 of 0.56 µM.
As for YGDDVIFSY, the IC50 with HLA-A*01:01 [14] (source organism: Rhinovirus A) turned out to be 0.2 µM.
Turning to KSAIVTLTY, the concentration for half-maximal inhibition (IC50) in the assay with HLA-A*01:01 [14] (source organism: Human papillomavirus 16) is 0.011 µM.
For ITKEKKEEL, the Kd with HLA-B*08:01 (setting [23]) is 4.81 µM; with HLA-B*15:17 [6] (setting [23]), at least 20 µM; in the assay with HLA-B*18:01 (setting [24]), at least 20 µM; with HLA-B*48:01 (setting [24]) it was at least 20 µM; with HLA-B*57:01 [10] (setting [24]), at least 20 µM; in the assay with HLA-A*11:01 (setting [24]), at least 20 µM. The Kd in the assay with HLA-B*07:02 (setting [24]), with HLA-B*40:01 (setting [24]), in the assay with HLA-A*02:01 [15], in the assay with HLA-B*39:01 [11] (source organism: Influenza A virus(A/swine/Shandong/fNY/2003(H9N2))), in the assay with HLA-B*38:01 and with HLA-B*51:01 (setting [24]) was at least 20 µM throughout. Further, the Kd with HLA-B*46:01 (setting [24]), with HLA-B*58:01 (setting [24]), with HLA-A*69:01 (setting [24]), with HLA-A*03:01 (setting [24]), with HLA-B*15:01 (setting [24]) and with HLA-A*01:01 [7] (setting [24]) was at least 20 µM in each case. The dissociation constant Kd in the assay with HLA-B*15:09 [16], with HLA-A*26:01 [17], in the assay with HLA-B*27:05 (setting [24]) and with HLA-A*31:01 [8] (setting [24]) was at least 20 µM throughout.
For LLAVGATKV, the IC50 in the assay with HLA-A*02:01 [13] was 0.333 µM.
With HYNAFHWAI, the Kd in the assay with HLA-C*04:01 is at least 20 µM; with HLA-C*07:02 it was 0.047 µM.
For the sequence FYDPMFKYHL, the IC50 in the assay with HLA-A*24:02 came out at 0.153 µM.
